Test results as given in the supplement of paper PMC7877785.
± gives the uncertainty stated by the source.

Experiment: self-splicing fitness, log relative to wild type (ln ratio); higher = more splicing; Tetrahymena group I intron in knt gene, E. coli kanamycin selection, DiMSum; sequences stand for … in CUCUCU…GGAGGGAAAAGUUAUCAGGCAUGCACCUGGUAGCUAGUCUUUAAACCAAUAGAUUGCAUCGGUUUAAAAGGCAAGACCGUCAAAUUGCGGGAAAGGGGUCAACAGCCGUUCAGUACCAAGUCUCAGGGGAAACUUUGAGAUGGCCUUGCAAAGGGUAUGGUAAUAAGCUGACGGACAUGGUCCUAACCACGCAGCCAAGUCCUAAGUCAACAGAUCUUCUGUUGAUAUGGAUGCAGUUCACAGACUAAAUGUCGGUCGGGGAAGAUGUAUUCUUCUCAUAAGAUAUAGUCGGACCUCUCCUUAAUGGGAGCUAGCGGAUGAAGUGAUGCAACACUGGAGCCGCUGGGAACUAAUUUGUAUGCGAAAGUAUAUUGAUUAGUUUUGGAGUACUCGUGGUCG
In short: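 Pooled colonies went to amplicon sequencing on an Illumina HiSeq 2500 after six replicate transformations. The plates were LB agar with 100 μg/mL carbenicillin, 50 μM IPTG and 0.2% rhamnose, with or without 25 μg/mL kanamycin, incubated overnight at 37°C or 30°C. The E. coli BL21(DE3) library had all eight P1ex-region intron nucleotides randomised, the intron placed in the knt kanamycin-resistance gene on pET-22b(+). DiMSum fitness is the error-weighted combination of replicate fold changes, kanamycin against none, normalised to wild type.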

## GGCCAGCAAUAUUACGCAUA
30 °C
  self-splicing fitness (ln): -1.52 ± 0.095
37 °C
  self-splicing fitness (ln): -0.945 ± 0.12

## AGAAAGCAAUAUUACGCGAC
30 °C
  self-splicing fitness (ln): -2.25 ± 0.15
37 °C
  self-splicing fitness (ln): -1.65 ± 0.18

## CAAGAGCAAUAUUACGUACG
30 °C
  self-splicing fitness (ln): -0.91 ± 0.084
37 °C
  self-splicing fitness (ln): 0.0935 ± 0.11

## GGGGAGCAAUAUUACGCUUA
30 °C
  self-splicing fitness (ln): -1.04 ± 0.2
37 °C
  self-splicing fitness (ln): -1.1 ± 0.27

## GCACAGCAAUAUUACGGAUG
30 °C
  self-splicing fitness (ln): -2.18 ± 0.075
37 °C
  self-splicing fitness (ln): -1.61 ± 0.096

## AAUAAGCAAUAUUACGGAGG
30 °C
  self-splicing fitness (ln): -3.19 ± 0.18
37 °C
  self-splicing fitness (ln): -1.93 ± 0.2

## CUUUAGCAAUAUUACGGGUU
30 °C
  self-splicing fitness (ln): -3.22 ± 0.34
37 °C
  self-splicing fitness (ln): -0.807 ± 0.19

## AGGUAGCAAUAUUACGUAGU
30 °C
  self-splicing fitness (ln): -3.123 ± 0.017
37 °C
  self-splicing fitness (ln): -1.62 ± 0.033

## CCGCAGCAAUAUUACGAGGG
30 °C
  self-splicing fitness (ln): -1.99 ± 0.091
37 °C
  self-splicing fitness (ln): -2.71 ± 0.19

## AGACAGCAAUAUUACGCCUU
30 °C
  self-splicing fitness (ln): -2.75 ± 0.097
37 °C
  self-splicing fitness (ln): -0.727 ± 0.086

## GGACAGCAAUAUUACGACAA
30 °C
  self-splicing fitness (ln): -1.7 ± 0.21
37 °C
  self-splicing fitness (ln): -0.0889 ± 0.12

## AAUAAGCAAUAUUACGCGAG
30 °C
  self-splicing fitness (ln): -1.14 ± 0.097
37 °C
  self-splicing fitness (ln): -0.557 ± 0.1

## GUUCAGCAAUAUUACGAAAU
30 °C
  self-splicing fitness (ln): -0.0391 ± 0.068
37 °C
  self-splicing fitness (ln): 0.236 ± 0.12

## AAGUAGCAAUAUUACGUACU
30 °C
  self-splicing fitness (ln): -0.863 ± 0.19
37 °C
  self-splicing fitness (ln): -0.429 ± 0.19

## AGACAGCAAUAUUACGUCGU
30 °C
  self-splicing fitness (ln): -2.21 ± 0.091
37 °C
  self-splicing fitness (ln): -1.85 ± 0.12

## ACCCAGCAAUAUUACGUCCC
30 °C
  self-splicing fitness (ln): -1.18 ± 0.16
37 °C
  self-splicing fitness (ln): -0.981 ± 0.17

## GGCUAGCAAUAUUACGAGCA
30 °C
  self-splicing fitness (ln): -0.589 ± 0.081
37 °C
  self-splicing fitness (ln): -0.213 ± 0.12

## CCACAGCAAUAUUACGGGUA
30 °C
  self-splicing fitness (ln): -3.44 ± 0.21
37 °C
  self-splicing fitness (ln): -2.88 ± 0.18

## UACCAGCAAUAUUACGUGGU
30 °C
  self-splicing fitness (ln): -3.86 ± 0.14
37 °C
  self-splicing fitness (ln): -2.89 ± 0.16

## CGGUAGCAAUAUUACGUUAU
30 °C
  self-splicing fitness (ln): -2.66 ± 0.25

## CGUAAGCAAUAUUACGCCAC
30 °C
  self-splicing fitness (ln): -2.55 ± 0.42
37 °C
  self-splicing fitness (ln): -0.936 ± 0.3

## GAUCAGCAAUAUUACGAAUU
30 °C
  self-splicing fitness (ln): -1.21 ± 0.065
37 °C
  self-splicing fitness (ln): -0.655 ± 0.083

## CCAUAGCAAUAUUACGCCUG
30 °C
  self-splicing fitness (ln): -1.08 ± 0.084
37 °C
  self-splicing fitness (ln): 0.137 ± 0.099

## ACAAAGCAAUAUUACGUUAG
30 °C
  self-splicing fitness (ln): -2.73 ± 0.11
37 °C
  self-splicing fitness (ln): -2.69 ± 0.17

## CUAAAGCAAUAUUACGGUUU
30 °C
  self-splicing fitness (ln): -3.29 ± 0.2
37 °C
  self-splicing fitness (ln): -2.81 ± 0.28

## GUGCAGCAAUAUUACGCGAA
30 °C
  self-splicing fitness (ln): -1.62 ± 0.1
37 °C
  self-splicing fitness (ln): -0.106 ± 0.085

## AAGCAGCAAUAUUACGCCUU
30 °C
  self-splicing fitness (ln): -2.42 ± 0.16
37 °C
  self-splicing fitness (ln): -1.35 ± 0.12

## AUUUAGCAAUAUUACGUGAA
30 °C
  self-splicing fitness (ln): -2.53 ± 0.14
37 °C
  self-splicing fitness (ln): -0.614 ± 0.12

## GUACAGCAAUAUUACGUACA
30 °C
  self-splicing fitness (ln): -3 ± 0.15
37 °C
  self-splicing fitness (ln): -1.63 ± 0.098

## CUUAAGCAAUAUUACGCUUU
30 °C
  self-splicing fitness (ln): -3.13 ± 0.11
37 °C
  self-splicing fitness (ln): -2.26 ± 0.15

## UACAAGCAAUAUUACGUCGC
30 °C
  self-splicing fitness (ln): -2.94 ± 0.11
37 °C
  self-splicing fitness (ln): -2.51 ± 0.14

## UACGAGCAAUAUUACGCACG
30 °C
  self-splicing fitness (ln): -2.94 ± 0.2
37 °C
  self-splicing fitness (ln): -1.3 ± 0.18

## CCCAAGCAAUAUUACGCGGG
30 °C
  self-splicing fitness (ln): -3.8 ± 0.17
37 °C
  self-splicing fitness (ln): -2.45 ± 0.18

## GAAUAGCAAUAUUACGAACC
30 °C
  self-splicing fitness (ln): 0.0666 ± 0.21
37 °C
  self-splicing fitness (ln): 0.816 ± 0.24

## UACCAGCAAUAUUACGCUGU
30 °C
  self-splicing fitness (ln): -3.86 ± 0.17
37 °C
  self-splicing fitness (ln): -1.36 ± 0.13

## CACCAGCAAUAUUACGGGAG
30 °C
  self-splicing fitness (ln): -2.61 ± 0.067
37 °C
  self-splicing fitness (ln): -1.26 ± 0.076

## GUGCAGCAAUAUUACGUUGG
30 °C
  self-splicing fitness (ln): -2.58 ± 0.084
37 °C
  self-splicing fitness (ln): -1.56 ± 0.097

## CAAUAGCAAUAUUACGGUUA
30 °C
  self-splicing fitness (ln): -1.4 ± 0.12
37 °C
  self-splicing fitness (ln): -1.24 ± 0.1
